Publication PMC4164354
Values joined by “and” are separate entries in the source; they are usually repeats but may differ in a detail not shown here. Equal values may be shown once.

Experiments:
[1] = biological target: native monomeric bovine lactoferrin (NM-bLf) (bovine); assay: SDS-PAGE; NM-bLf stored at high concentration; denaturing SDS-PAGE; data not shown
[2] = biological target: bovine lactoferrin purified from bovine colostrum as the high molecular weight biomacromolecular complex (HMW-bLf) (bovine); assay: SDS-PAGE and Western blot; 3 mg mL^-1 HMW-bLf in 50 mM Tris HCl pH 7.5 with 1 M NaCl, 1 day at 37°C; gradient SDS-PAGE (reducing gel), blot probed with goat anti-bLf

| stoichiometry N [1] | stoichiometry N [2] | Substance |
| --- | --- | --- |
| 3 and 2 | – | native monomeric bovine lactoferrin (NM-bLf) (natural protein) |
| – | 2 | bovine lactoferrin purified from bovine colostrum as the high molecular weight biomacromolecular complex (HMW-bLf) (natural protein) |
